Experimental data reported in article PMC8791620 (Science Advances, 2022).

Target: T1, Trs120 (3xFLAG-tagged, subunit of TRAPPII) (S. cerevisiae, UniProt Q04183 1-1289)
T1 sequence: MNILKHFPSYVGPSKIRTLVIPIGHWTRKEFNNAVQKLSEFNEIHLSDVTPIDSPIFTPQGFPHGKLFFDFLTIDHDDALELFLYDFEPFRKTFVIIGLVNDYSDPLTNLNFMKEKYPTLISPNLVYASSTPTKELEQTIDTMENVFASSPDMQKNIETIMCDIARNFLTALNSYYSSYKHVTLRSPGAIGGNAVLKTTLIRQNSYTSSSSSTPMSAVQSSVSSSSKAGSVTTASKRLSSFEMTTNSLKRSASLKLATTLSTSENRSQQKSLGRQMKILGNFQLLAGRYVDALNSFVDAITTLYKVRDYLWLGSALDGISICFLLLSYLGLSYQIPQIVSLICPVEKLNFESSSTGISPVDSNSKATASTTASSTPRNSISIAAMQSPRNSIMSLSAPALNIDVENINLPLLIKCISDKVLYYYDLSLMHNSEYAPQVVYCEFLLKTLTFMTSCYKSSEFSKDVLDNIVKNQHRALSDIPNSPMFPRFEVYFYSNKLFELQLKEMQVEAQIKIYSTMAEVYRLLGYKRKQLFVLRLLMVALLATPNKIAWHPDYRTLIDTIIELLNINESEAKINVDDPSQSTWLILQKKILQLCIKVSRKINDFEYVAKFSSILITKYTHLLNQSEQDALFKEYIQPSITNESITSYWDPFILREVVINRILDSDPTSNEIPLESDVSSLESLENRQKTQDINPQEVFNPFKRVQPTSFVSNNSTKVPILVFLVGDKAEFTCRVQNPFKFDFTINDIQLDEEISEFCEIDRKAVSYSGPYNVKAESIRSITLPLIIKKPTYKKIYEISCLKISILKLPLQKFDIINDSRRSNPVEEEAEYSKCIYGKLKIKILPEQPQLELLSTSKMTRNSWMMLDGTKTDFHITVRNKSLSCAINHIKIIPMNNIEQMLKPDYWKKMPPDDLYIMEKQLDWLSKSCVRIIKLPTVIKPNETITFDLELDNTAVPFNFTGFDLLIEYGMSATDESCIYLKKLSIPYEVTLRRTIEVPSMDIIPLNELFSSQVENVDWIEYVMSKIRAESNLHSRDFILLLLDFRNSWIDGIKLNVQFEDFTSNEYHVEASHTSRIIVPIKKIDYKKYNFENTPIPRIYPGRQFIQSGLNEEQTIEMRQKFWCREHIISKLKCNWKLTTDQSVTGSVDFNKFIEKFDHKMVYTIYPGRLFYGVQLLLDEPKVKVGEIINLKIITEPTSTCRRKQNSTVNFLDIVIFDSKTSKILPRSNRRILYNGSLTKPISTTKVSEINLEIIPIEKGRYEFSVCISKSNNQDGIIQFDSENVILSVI
Experiment: cryo-EM structure

binding result: binds
B1: Trs130 (subunit of TRAPPII) (natural protein, S. cerevisiae, UniProt Q03660 1-1102, looked up)
chain: MDKEIYCGSVPVSYFDPFDLFESLRPEFQQILPLDNIHWKAFDGTVRTVNRLPIELIPEGRGEADKSNDEQPFIRFLIVNCISIDQYRAKVRPLVRQWLPNLESVSSSTGEKMIYKPIILLYANSEVVDSNLFKSVSLMEKFGKDFPHVQTLEVRSVYRSPKERQEFWNQFSQKIKASVLSIFQKRLTHLQHSLANLQKGNNFEEQLLTREKLYELYVVFNILEDASLELQKIKKEILRRNMNMPDGKLQVPFESSSKSDESLGSIIIEGTLDKFQLHKYFFIRRLRLLKLEDQTLTAFVGAFQLIKNFIESISIEYRKSVRLLEFKHYFITSMLSYFEFENVSNPLLCEIKAELLMLKRDNWVQGVMATSGYRLMDKNYPNSDVKYKFDLLKETFVDETVFQENFLTLTKEILSLFNKCEGKRQRIVDILSIEIGLLYYQGKKYEEAVSLFLSCYEYYTQTNWNSIGLKILQVFIDSLSHCPKLDVLQIDGESVSASAVLTNAFLNILKLCKDNDSKEIWWKKFMDLQMKNNIHLMYPLDGLFEVTLNSKVHLARANVSAIEVNLKSYGFPEDISTKTMRLSLKNMGGDVIVFGASDFLLKKGENKLILECRDIMYGEFSLLSFEIIVEGITFVKEFPENQDEFIVVPEIYCKESTKVLVKQAHNLNLGEYALELKSVQSDALESLQVEVEVQKNIGNMKNLPVSFSMDEIQARKRYNTPFENVRLEYYLLDQITAFDLIIKTSFTKKNDQGTFGETKKVRIQCYLQLSVSVEDIFKKDIFFFKFLLNSSVREEPVILYSSELSAPDTRNDYNIRGDYIATTPALITFDGNESFINCYEITANNNFDSKDIFNLKVRYNTLKEQLDCFITDAVLIEGDVEWFILFEKWKTFWELEILKKLKYDYDAFKENRIIRLLKTSIDLNKTKSKIRNLCIEKAVLDKILICLNKVSRGIAVCNTDMDEYVRNLVPKQLTVPVQLPGFEQFFHVQFEQMETSHDALHDTIATIGNSLSYTVIVENLSGQWGQDVIDDGGYIFEILSSNEWLIHGQKRCAIKEKRKEFEVHLIPLKKGYLNFPRVEITNINGKSCRVDHSNAFESILIF
